The test system of assay [1] is phosphorylated ERK in HEK293T cells. Kind of assay: ERK phosphorylation in serum-starved HEK293 cells (Western blotting). The class given is cell-based, human. As for the experimental part: The sample (20 μl) was loaded onto Mini-PROTEAN TGX Precast Gel 4-20% for experiments with <9 samples (4568094, Bio-Rad) or Criterion TGX Precast Gel 4-20% (5678094, Bio-Rad) for experiments with >9 samples. Gels were run in 1× Tris/Glycine/SDS buffer (1610732, Bio-Rad) at 150 V and stopped when the sample dye reached the end of the gel. Gels were removed and electrotransferred via a semi-dry cassette (1703940, Bio-Rad) in I× Tris/Glycine buffer (1610734, Bio-Rad) with 20% methanol. Gels were transferred onto polyvinylidene diflouride membranes (IPVH00010, Millipore) at 20 V for 1 hour. Membranes were then blocked in 5% dried milk with 0.5% Tween 20 diluted in Tris-buffered saline (TBST; pH 7.5) for 1 hour and probed with antibodies against specific antigens at 1:1000 in TBST with 5% dried milk. Blots were washed 3× for 5 minutes in TBST and probed with HRP-coupled secondary antibodies against specific species at 1:10,000 in TBST with 5% dried milk. Membranes were imaged on the SRX-101A X-ray film developer (Konica Minolta).
To determine the cellular activity of paracrine FGFs, the activation/phosphorylation of ERK in HEK293 cells after treatment was studied. HEK293 cells were seeded in 6-well plates in DMEM (26140079, Gibco) supplemented with I× Pen/Strep (15140122, Gibco) and 10% FBS (26140079, Gibco) and grown for 48 hours. Upon reaching 80% confluence, cells were serum starved overnight in DMEM and 1× Pen/Strep without FBS. The medium was changed, and cells were treated with sKL at 2 μg/ml or vehicle (sKL elution buffer: 25 mM Tris ph 8.0, 500 mM NaCl) for 15 minutes. Cells were then treated with various FGFs at 1.1 nM for 10 minutes. Cells were lysed in 200 μl of RIPA with the addition of a protease inhibitor (11836153001, Roche) and phosphatase inhibitors (P5726 and P0044, Sigma-Aldrich) for 30 minutes. The mixture was then centrifuged at 20,000 g for 60 minutes to remove all cell debris. One hundred microliters of 1× Laemmli sample buffer (1610737, Bio-Rad) with 1.42 M 2-mercaptoethanol was added, and samples were boiled for 5 minutes. Twenty microliters of samples was loaded onto 12% SDS-PAGE gels and analyzed using Western blotting for total and phosphorylated ERK.

Assay [2] addresses T1, FGF23 binding to FGFR4 (Homo sapiens, UniProt P22455+Q9GZV9).
T1 construct: Fc-coupled FGFR ectodomains were immobilized on protein A/G beads; purchased R&D Systems 2604FG025/CF or 2629FG025/CF; 685FR050
T1 sequence (Q9GZV9 25-251): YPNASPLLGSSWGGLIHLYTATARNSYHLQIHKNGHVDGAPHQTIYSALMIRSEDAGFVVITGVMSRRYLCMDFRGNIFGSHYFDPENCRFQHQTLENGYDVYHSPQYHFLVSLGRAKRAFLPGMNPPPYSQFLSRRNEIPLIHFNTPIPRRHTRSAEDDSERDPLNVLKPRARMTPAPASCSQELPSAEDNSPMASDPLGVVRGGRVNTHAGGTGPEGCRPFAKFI
T1 sequence (P22455 22-369 limits assumed): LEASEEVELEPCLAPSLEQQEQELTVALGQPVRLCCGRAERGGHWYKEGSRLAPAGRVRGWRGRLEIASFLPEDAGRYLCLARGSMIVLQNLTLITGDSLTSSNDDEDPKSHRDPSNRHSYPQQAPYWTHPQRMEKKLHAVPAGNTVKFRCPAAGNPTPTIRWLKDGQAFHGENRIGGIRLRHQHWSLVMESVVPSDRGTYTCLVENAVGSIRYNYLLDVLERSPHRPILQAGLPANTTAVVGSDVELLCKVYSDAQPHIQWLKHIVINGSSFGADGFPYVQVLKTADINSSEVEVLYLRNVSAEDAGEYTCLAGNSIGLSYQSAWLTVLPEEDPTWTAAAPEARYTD
In words: Plate-based binding, FGF23 coated, then sKL, heparin or PBS, then Fc-FGFR. To be noted: with sKL, with heparin 0.4 USP, or alone. As for the experimental part: Proteins were coated on 96-well plates (MaxiSorp; 439454, Thermo Fisher Scientific), and proteins were added to wells in 100 μl of enzyme-linked immunosorbent assay (ELISA) coating buffer (E107, Bethyl Laboratories) with a lid placed overtop and incubated at 4° C. overnight. Plates were washed 5× with 350 μl of assay buffer (50 mM Tris [pH 7.4], 200 mM NaCl, 0.01% Tween 20) on a 50 TS microplate washer (BioTek). Plates were blocked for 1 hour in 200 μl of assay buffer with 0.5% BSA. Plates were washed as before, and proteins were incubated on plates in 100 μl of assay buffer with 0.5% BSA. Proteins or heparin was incubated in orders described in the respective figure legends. Assays using FLAG-tag-based detection were incubated with anti-FLAG coupled to HRP at 1:20,000, and assays using Fc detection were incubated with anti-human Fc coupled to HRP at 1:10,000. Plates were washed as above, and 100 μl of 3,3′,5,5′-tetramethylbenzidine (TMB) substrate (E102, Bethyl Laboratories) was added for 15 to 20 minutes until positive wells developed a dark blue color. Reactions were stopped with ELISA stop solution (E115, Bethyl Laboratories) and analyzed using the Synergy HI plate reader (BioTek) at 450 nm wavelength. […] As a control to remove background absorbance values, wells were coated with an equal amount of BSA to match the amount of protein coated in experimental wells and treated the same as experimental wells. To study the effects of sKL on the binding between paracrine FGFs and FGFRs, plates were run as above except coated with paracrine FGFs. Fc-FGFR1 was preincubated with sKL or vehicle for 60 minutes, and then the combination was added to wells and the assay was run as before.

“Also recorded” adds a separate entry of the source.

B1: sKL: recombinant soluble α-klotho ectodomain, mouse aa 35-982 and human aa 34-981, FLAG- or Strep/His-tagged, purified from HEK293 cells (protein)
chain: EPGDGAQTWARFSRPPAPEAAGLFQGTFPDGFLWAVGSAAYQTEGGWQQHGKGASIWDTFTHHPLAPPGDSRNASLPLGAPSPLQPATGDVASDSYNNVFRDTEALRELGVTHYRFSISWARVLPNGSAGVPNREGLRYYRRLLERLRELGVQPVVTLYHWDLPQRLQDAYGGWANRALADHFRDYAELCFRHFGGQVKYWITIDNPYVVAWHGYATGRLAPGIRGSPRLGYLVAHNLLLAHAKVWHLYNTSFRPTQGGQVSIALSSHWINPRRMTDHSIKECQKSLDFVLGWFAKPVFIDGDYPESMKNNLSSILPDFTESEKKFIKGTADFFALCFGPTLSFQLLDPHMKFRQLESPNLRQLLSWIDLEFNHPQIFIVENGWFVSGTTKRDDAKYMYYLKKFIMETLKAIKLDGVDVIGYTAWSLMDGFEWHRGYSIRRGLFYVDFLSQDKMLLPKSSALFYQKLIEKNGFPPLPENQPLEGTFPCDFAWGVVDNYIQVDTTLSQFTDLNVYLWDVHHSKRLIKVDGVVTKKRKSYCVDFAAIQPQIALLQEMHVTHFRFSLDWALILPLGNQSQVNHTILQYYRCMASELVRVNITPVVALWQPMAPNQGLPRLLARQGAWENPYTALAFAEYARLCFQELGHHVKLWITMNEPYTRNMTYSAGHNLLKAHALAWHVYNEKFRHAQNGKISIALQADWIEPACPFSQKDKEVAERVLEFDIGWLAEPIFGSGDYPWVMRDWLNQRNNFLLPYFTEDEKKLIQGTFDFLALSHYTTILVDSEKEDPIKYNDYLEVQEMTDITWLNSPSQVAVVPWGLRKVLNWLKFKYGDLPMYIISNGIDDGLHAEDDQLRVYYMQNYINEALKAHILDGINLCGYFAYSFNDRTAPRFGLYRYAADQFEPKASMKHYRKIIDSNGFPGPETLERFCPEEFTVCTECSFFHTRKS
modifications: left off: small tags and cut ends
notes: recombinant soluble α-klotho ectodomain, mouse aa 35-982 and human aa 34-981, FLAG- or Strep/His-tagged, purified from HEK293 cells
In the case of B1, the “phospho-ERK levels in cells treated with FGF2” value in assay [1] (sKL 2 μg/ml 15 minutes before FGF2) is “decreased phospho-ERK levels; also recorded: did not occur”. For the same molecule, the “phospho-ERK levels in cells treated with FGF5” value in assay [1] (sKL 2 μg/ml 15 minutes before FGF5) is “decreased phospho-ERK levels; also recorded: did not occur”. For the same molecule, the “ERK phosphorylation in cells incubated with FGF23” value in assay [1] (sKL 2 μg/ml 15 minutes before FGF23) is listed as “induced ERK phosphorylation; also recorded: increased pERK levels”. The “phospho-ERK levels in cells treated with FGF8b” value in assay [1] (sKL 15 minutes before FGF8b) is “did not occur”. Besides, the “binding of coated FGF23 to Fc-FGFR4” value in assay [2] was “highest FGF23-sKL affinities; also recorded: increased; also recorded: the strongest”.

B2: FGF23: recombinant fibroblast growth factor 23 protein from R&D Systems (protein)
chain: YPDTSPLLGSNWGSLTHLYTATARTSYHLQIHRDGHVDGTPHQTIYSALMITSEDAGSVVITGAMTRRFLCMDLHGNIFGSLHFSPENCKFRQWTLENGYDVYLSQKHHYLVSLGRAKRIFQPGTNPPPFSQFLARRNEVPLLHFYTVRPRRHTRSAEDPPERDPLNVLKPRPRATPVPVSCSRELPSAEEGGPAASDPLGVLRRGRGDARGGAGGADRCRPFPRFV
Consider B2, for which the “ERK phosphorylation induced by FGF” value in assay [1] (FGF 1.1 nM for 10 minutes, absence of sKL) is on record as “had no effect”. Further, the “binding of coated FGF23 to Fc-FGFR4” value in assay [2] was “low affinity; also recorded: weak affinity”.

The values above are taken from US20240384250A1, “FIBROBLAST GROWTH FACTOR 23 MODULATING COMPOUNDS” (THE UAB RESEARCH FOUNDATION, priority 2021, published 2024).
